{
  "source": "patent US20190269750A1",
  "about": "“PHARMACEUTICAL COMPOSITION AND METHOD OF TREATING FEMALE SEXUAL DYSFUNCTIONS” (\"IVIX\" Ltd., priority 2016, published 2019)",
  "assay": "Distribution of tritium-labelled pentapeptide after intranasal administration",
  "format": "in vivo",
  "conditions": "rats, tritium label",
  "description": "The study to determine how the medication of the invention is distributed through the body and reaches the brain was conducted on rats. Specially prepared rats were intranasally administered the pharmaceutical composition containing the pentapeptide of the invention radioactively-labelled with tritium. The animals were then euthanized at certain time intervals to be able to assess the biodistribution of the peptide in the brain and its transportation path.",
  "note": "No end group written: not given here.",
  "data": [
    {"substance": "pentapeptide of the invention radioactively-labelled with tritium: pentapeptide Thr-Lys-Pro-Arg-Pro (SEQ ID NO: 5) labelled with tritium, given intranasally in a pharmaceutical composition (TKPRP; also: tritium label, position not given here)", "values": [
      {"measurement": "biodistribution: delivery to the brain", "value": "a significant part of the medication reached the brain undegraded"},
      {"measurement": "biodistribution: site of detection", "value": "detected in the olfactory bulbs and other parts of the brain"}
    ]}
  ]
}
